# What was measured:
# [1] = target: T1, HLA-A2 molecules on the surface of human T2 cells (Homo sapiens, UniProt P04439, D140Y/D185E/D98H/E176V/E277Q/G131W/G231S/I119V/I121R/I166T/I218V/L300P/L318F/N151K/N90K/P208A/P217A/Q86G/Q94H/R138H/R169H/T345S); type: binding; conditions: non-spliced XBP1 peptides (FIG. 1), 50 μg/ml peptide (30 μg/ml influenza peptide), overnight
# [2] = target: T1, HLA-A2 molecules on the surface of human T2 cells; assay: Peptide stability assay (peptide/HLA-A2 binding stability post-Brefeldin A); conditions: for HLA-A2 binding stability (HLA-A2 up-regulation on T2 cells) versus native counterpart: spliced XBP1 heteroclitic peptides (FIG. 4)
# [3] = test system: CD3+ T lymphocytes from normal HLA-A2+ donors; assay: Phenotypic analysis of peptide-stimulated T cells (flow cytometry); type: cell-based, human; conditions: after peptide stimulation; for percentage of CD8+ T cells: unstimulated cultures 33%; for percentage of CD4+ T cells: unstimulated cultures 64%
# Protocol: Peptide-specific CTL (that is, XBP1, CD138, or CS1-peptide-specific CTL) were generated ex vivo by repeated stimulation of CD3^+ T lymphocytes obtained from normal HLA-A2^+ donors with XBP1, CD138, or CS1-peptide-pulsed antigen-presenting cells (APC), either T2 cells or mDC. In brief, T2 cells were washed and resuspended in serum-free AIM-V medium (Gibco BRL) and pulsed overnight at 37° C. with 50 μg/ml of the appropriate XBP1 or CD138 peptide. Peptide-pulsed APC were washed, counted, irradiated at 10 Gy and used to prime CD3^+ T cells at a 1:40 T2/peptide (stimulator)-to-CD3^+ T cell (responder) ratio in AIM-V medium supplemented with 10% human AB serum (BioWhittaker, Walkersville, Md.). The T cell cultures were restimulated every seven days with irradiated APC/peptide for a total of 4 cycles to generate XBP1 peptide-specific CTL (XBP1-CTL), CD138 peptide-specific CTL (CD138-CTL), or CS1 peptide-specific CTL (CS1-CTL). It is clear from the foregoing that “XBP1-CTL,” “CD138-CTL,” and “CS1-CTL” referred to herein are not clonal (or homogenous) populations. Rather, the XBP1-CTL, CD138-CTL, and CS1-CTL cells are heterogenous populations of lymphocytes comprising XBP1 peptide-, CD138 peptide-, or CS1 peptide-specific CTL along with non-specific CTL, APCs, and other lymphocytes obtained from the normal donors. 50 U/ml of interleukin-2 (IL-2) was added to the cultures two days after the second stimulation. Control T cell cultures (unstimulated with peptide) were maintained in AIM-V medium supplemented with 10% human AB serum containing 50 U/ml IL-2.
# To determine the phenotype of the XBP1-CTL, CD4, or CD8 expression by the cells was detected using anti-CD4-PE or anti-CD8-FITC mouse anti-human mAbs. In addition, a variety of other expression markers were detected on the cells using combinations of either FITC-conjugated anti-CD69/PE-conjugated-anti-CD45RO or FITC-conjugated anti-CD45RA-FITC/PE-conjugated anti-CCR7 mouse anti-human mAbs. Alternatively, HLA-A2 expression by U266, McCAR, ML-2 and MM1S cells was determined using an FITC-conjugated anti-HLA-A2 anti-human mAb. After contacting the cells with antibodies for 15 minutes at 4° C., the cells were washed and analyzed using a FACSort™ flow cytometer with CellQuest v2.1 software (Becton Dickinson).
# Cytotoxic T lymphocytes (CTL) are defined phenotypically by the expression of distinct cell surface antigens (e.g., CD8). Cell surface antigens can also be used to further define CTL as naïve or activated memory cells. For example, naïve humanCTL can be identified by the presence of CD45RA^+/CCR7^+, whereas activated human memory cells can be identified as CD69^+/CD45RO^+. Flow cytometry was performed on populations of human T cells stimulated with the heteroclitic peptides to determine the percentage of CTL that were naïve or activated memory cells. […] The unstimulated control T cells or CD138-CTL were further examined for naïve (CD45RA^+/CCR7^+) or activated memory (CD69^+/CD45RO^+) cell status.
# McCAR cells = assay: CTL proliferation by CFSE tracking, stimulation with McCAR cells; type: cell-based, human; conditions: cultured with McCAR cells, day 4
# Protocol: XBP1-CTL or CD138-CTL were washed twice in PBS (Gibco-BRL) and resuspended in RPMI-1640 culture medium at a concentration of 1×10^6 cells/ml. CFSE (Molecular Probes, Eugene, Oreg.) in the form of a 5 mM stock solution in DMSO was added to the CTL to give a final concentration of 5 μM and incubated for 10 minutes at 37° C. in a CO2 incubator protected from light. After incubation, a volume of ice-cold PBS (containing 2% FCS) equivalent to five-times the volume of the CTL cells was added to the cells to quench the reaction. Cells were incubated for 5 minutes on ice, centrifuged and resuspended in fresh PBS (containing 2% FCS) after a total of three washings. CFSE-labeled T cells were adjusted to a concentration of 2×10^6 cells/ml with RPMI culture medium, stimulated with 2×10^5 cells/ml McCAR cells, ML-2 cells, MM1S cells, or no cells. The stimulated CFSE-labeled cells were examined on by FFC analysis day 4.
# XBP1-CTL were exposed to carboxyfluoroscein succinimidyl ester (CFSE) as described above. Proliferation of the XBP1-CTL in response to stimulation with various tumor lines was determined by measuring the amount of CFSE in the cells. CFSE is a membrane permeable dye, which is taken up by cells. […] Thus, the number of cell divisions can be determined as the inverse of the concentration of dye in each cell of a population.
# CD8+ T cells = assay: Expansion of P2 peptide-specific CS1-CTL (HLA-A*0201 P2-tetramer / anti-CD8 flow analysis); type: cell-based, human; conditions: after the fourth re-stimulation with peptide-presenting dendritic cells
sequence,measurement,setting,value
"RMSELEQQV (listed as Homo sapiens) [XBP193-101, native non-spliced XBP1 peptide]","affinity for HLA-A2, HLA-A2-mean fluorescence intensity (MFI)",[1],"significant affinity for HLA-A2 affinity, although less than that of XBP1184-192"
"YLFPQLISV (listed as Homo sapiens) [SP XBP1 #3M, heteroclitic spliced XBP1 367-375 peptide]",time for which higher level of HLA-A2 up-regulation was maintained,[2]; in Brefeldin A after removing unbound peptide (FIG. 4),6 h
same,HLA-A2 binding stability (HLA-A2 up-regulation on T2 cells) versus native counterpart,[2],increase in HLA-A2 up-regulation on T2 cells
same,percentage of CD69+/CD45RO+ (activated memory) cells,[3]; control T cells 4%,64%
same,percentage of CD8+ T cells,[3],75%
same,percentage of CD4+ T cells,[3],18%
same,"CTL proliferation (M1 gated, CFSE)",McCAR cells,42%
YILDNLDPV (listed as Influenza virus) [heteroclitic peptide derived from native spliced XBP1 #1p],HLA-A2 binding stability (HLA-A2 up-regulation on T2 cells) versus native counterpart,[2],did not exhibit a significant increase in HLA-A2 stability over its native counterpart
"KLLLENQLL (listed as Homo sapiens) [XBP1110-118, native non-spliced XBP1 peptide]","affinity for HLA-A2, HLA-A2-mean fluorescence intensity (MFI)",[1],"significant affinity for HLA-A2 affinity, although less than that of XBP1184-192"
"ILAVLTLQI (listed as Homo sapiens) [XBP1189-197, native non-spliced XBP1 peptide]","affinity for HLA-A2, HLA-A2-mean fluorescence intensity (MFI)",[1],"significant affinity for HLA-A2 affinity, although less than that of XBP1184-192"
"VLTLQIQSL (ILAVLTLQI; listed as Homo sapiens) [XBP1192-200, native non-spliced XBP1 peptide]","affinity for HLA-A2, HLA-A2-mean fluorescence intensity (MFI)",[1],"significant affinity for HLA-A2 affinity, although less than that of XBP1184-192"
"SLFVLGLFL (listed as Homo sapiens) [P2, native CS1 peptide]",percentage of cells bound by both HLA-A*0201 P2-tetramer and anti-CD8 antibody,CD8+ T cells,Approximately 4.1%
"GLVGLIFAV (listed as Homo sapiens) [CD138 #2p, native CD138 peptide]",percentage of CD8+ T cells,[3],82%
same,percentage of CD4+ T cells,[3],15%
"LLREKTHGL (listed as Homo sapiens) [XBP1117-125, native non-spliced XBP1 peptide]","affinity for HLA-A2, HLA-A2-mean fluorescence intensity (MFI)",[1],"significant affinity for HLA-A2 affinity, although less than that of XBP1184-192"

# From US9096681B2, “XBP1, CD138, and CS1 peptides” (Dana-Farber Cancer Institute, Inc., priority 2008, dated 2015)
